Experimental data taken from patent publication US20080004209.

How the values were obtained:
[1] = system: alkylated and reduced resistin
[2] = system: native resistin
Chain of native resistin (Q9HD89 19-108): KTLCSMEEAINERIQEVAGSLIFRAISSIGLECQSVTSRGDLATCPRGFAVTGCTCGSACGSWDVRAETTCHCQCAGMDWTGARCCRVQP

Chain of trypsin (P00761 9-231): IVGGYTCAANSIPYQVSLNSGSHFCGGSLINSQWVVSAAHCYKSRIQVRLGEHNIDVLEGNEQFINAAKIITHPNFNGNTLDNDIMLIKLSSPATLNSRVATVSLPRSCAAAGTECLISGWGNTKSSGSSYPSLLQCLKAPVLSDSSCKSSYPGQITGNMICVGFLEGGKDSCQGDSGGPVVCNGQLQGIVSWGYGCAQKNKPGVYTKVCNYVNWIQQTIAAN
Chain of alkylated and reduced resistin (Q9HD89 19-108): as the sequence (Q9HD89 19-108) above

Substance | cleavage of resistin in vitro (24 hr digestion, SDS-PAGE) [1] | proteolytic cleavage (preliminary protease digestion experiments, data not shown) [2]
cathepsin E | incubation with HIV-1 protease, cathepsin D and cathepsin E resulted in the appearance of a ca. 7 kDa resistin cleavage product | 
cathepsin D | incubation with HIV-1 protease, cathepsin D and cathepsin E resulted in the appearance of a ca. 7 kDa resistin cleavage product | 
HIV-1 protease | incubation with HIV-1 protease, cathepsin D and cathepsin E resulted in the appearance of a ca. 7 kDa resistin cleavage product | 
trypsin | resistin was completely degraded by the non-specific protease, trypsin | native resistin was refractory to proteolytic cleavage by trypsin, suggestive of a highly folded state (data not shown)
